“And” between values parts separate entries of the source, which are not always exact repeats. Equal values may be shown once. Each block holds one substance with its values, some of them ahead of it. Where no end group is shown, it is not given here. [ ]: non-standard residue; d: D form. d2Nal = N[C@H](Cc1ccc2ccccc2c1)C(=O)O; dCha = N[C@H](CC1CCCCC1)C(=O)O; Dab = NCC[C@H](N)C(=O)O; Aib = CC(C)(N)C(=O)O; βAla = NCCC(=O)O
Target: Ghrelin/GHRP/GHS Receptor (Rattus norvegicus, UniProt O08725)
Assay: In vivo GH release in rat (serum GH by RIA after i.v. peptide)
Conditions: for Unstimulated Basal GH Release from rat: Table 3; for Unstimulated Basal GH release from rats: Table 5; for Stimulated (S) GH release from rats / Unstimulated GH release from rats: Table 4; for Stimulated (S) GH release from rats: P + S; for Unstimulated GH release from rats: −S
Experimental: For the in vivo assay of GH Release in rat, immature female Sprague Dawley rats were obtained from Charles River from Wilmington, Mass. After arrival they were housed at 25° C. with a 14:10 h light:dark cycle. Water and Purina rat chow were available at libitum. Pups were weaned at 21 days of age.
Immature twenty six day old female Sprague Dawley rats, 3-6 rats per treatment dose, were pretreated with pentobarbital 20 minutes before iv injection of vehicle/peptide or peptide plus stimulator. Injection was made as a 0.1 ml solution. For the non-pentobarbital treated rat assay, peptides were administered iv into the tail vein of conscious rats. All animals were sacrificed by guillotine after iv peptide or vehicle. Trunk blood was collected at +10-15 minutes […], allowed to clot, centrifuged and serum stored until assayed for GH levels by RIA. The GH RIA reagents were distributed by the NIH. Control data was collected from rats treated with only the corresponding vehicle in the absence of peptide or stimulator. Control stimulated data was collected from rats treated with stimulator alone in the absence of any peptide.

[1] = peptide antagonist alone 10 μg i.v.
[2] = peptide antagonist alone 1 μg i.v.
[3] = peptide antagonist alone 3 μg i.v.
[4] = peptide antagonist alone 30 μg i.v.
[5] = Table 2, peptide antagonist 10 μg i.v. + stimulator DAla-DβNal-Ala-Trp-DPhe-Lys-NH2 1 μg
[6] = Table 2, peptide antagonist 30 μg i.v. + stimulator DAla-DβNal-Ala-Trp-DPhe-Lys-NH2 0.3 μg
[7] = Table 2, peptide antagonist 30 μg i.v. + stimulator DAla-DβNal-Ala-Trp-DPhe-Lys-NH2 1 μg
[8] = Table 2, peptide antagonist 100 μg i.v. + stimulator DAla-DβNal-Ala-Trp-DPhe-Lys-NH2 1 μg

Chain of Ghrelin/GHRP/GHS Receptor (O08725 whole entry): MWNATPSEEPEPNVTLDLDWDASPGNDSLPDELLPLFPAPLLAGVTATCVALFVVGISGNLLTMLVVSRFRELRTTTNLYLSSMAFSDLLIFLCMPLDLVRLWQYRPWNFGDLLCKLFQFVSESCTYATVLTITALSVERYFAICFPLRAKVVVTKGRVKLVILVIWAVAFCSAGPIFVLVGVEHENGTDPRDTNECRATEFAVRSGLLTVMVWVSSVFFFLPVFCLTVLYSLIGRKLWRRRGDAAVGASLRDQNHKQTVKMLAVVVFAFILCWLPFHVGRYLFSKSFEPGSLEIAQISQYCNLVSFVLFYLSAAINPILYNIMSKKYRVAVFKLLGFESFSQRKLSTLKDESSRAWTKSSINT

- Unstimulated Basal GH Release from rat (peptide alone 3 μg i.v.): 253 ± 79 ng/mL
- Unstimulated Basal GH Release from rat (peptide alone 10 μg i.v.): 277 ± 43 ng/mL
- Unstimulated Basal GH Release from rat (peptide alone 30 μg i.v.): 347 ± 66 ng/mL
- Unstimulated Basal GH Release from rat (peptide alone 100 μg i.v.): 645 ± 117 ng/mL
Substance: DβNal-Ala-Trp-DPhe-Leu-NH2 ([d2Nal]AW[dF]L-NH2; N-terminus assumed; SMILES CC(C)C[C@H](NC(=O)[C@@H](Cc1ccccc1)NC(=O)[C@H](Cc1c[nH]c2ccccc12)NC(=O)[C@H](C)NC(=O)[C@H](N)Cc1ccc2ccccc2c1)C(N)=O)

- Unstimulated Basal GH Release from rat (peptide alone 30 μg i.v.): 341 ± 46 ng/mL
- Unstimulated Basal GH Release from rat (peptide alone 100 μg i.v.): 636 ± 171 ng/mL
Substance: βAla-Trp-DAla-DTrp-Phe-NH2 ([βAla]W[dA][dW]F-NH2; N-terminus assumed; SMILES C[C@@H](NC(=O)[C@H](Cc1c[nH]c2ccccc12)NC(=O)CCN)C(=O)N[C@H](Cc1c[nH]c2ccccc12)C(=O)N[C@@H](Cc1ccccc1)C(N)=O)

- Unstimulated Basal GH Release from rat (peptide alone 3 μg i.v.): 235 ± 43 ng/mL
- Unstimulated Basal GH Release from rat (peptide alone 10 μg i.v.): 178 ± 33 ng/mL
- Unstimulated Basal GH Release from rat (peptide alone 30 μg i.v.): 172 ± 15 ng/mL
- Unstimulated Basal GH Release from rat (peptide alone 100 μg i.v.): 185 ± 39 ng/mL
Substance: DAla-DβNal-Ala-Ala-DAla-Lys-NH2 ([dA][d2Nal]AA[dA]K-NH2; N-terminus assumed; SMILES C[C@H](NC(=O)[C@H](C)NC(=O)[C@@H](Cc1ccc2ccccc2c1)NC(=O)[C@@H](C)N)C(=O)N[C@H](C)C(=O)N[C@@H](CCCCN)C(N)=O)

- Unstimulated Basal GH release from rats [1]: 121 ± 24 ng/mL
Substance: Lys-DHis-DTrp-Phe-NH2 (K[dH][dW]F-NH2; N-terminus assumed; SMILES NCCCC[C@H](N)C(=O)N[C@H](Cc1c[nH]cn1)C(=O)N[C@H](Cc1c[nH]c2ccccc12)C(=O)N[C@@H](Cc1ccccc1)C(N)=O)

- Unstimulated Basal GH release from rats [2]: 127 ± 32 ng/mL
- Unstimulated Basal GH release from rats [3]: 147 ± 37 ng/mL
Substance: Alaψ[CH2NH]His-DTrp-Ala-Trp-DPhe-Lys-NH2 (AH[dW]AW[dF]K-NH2; also: reduced bond ψ[CH2NH] between Ala1 and His2)

- Unstimulated Basal GH release from rats [1]: 228 ± 76 ng/mL
- Unstimulated Basal GH release from rats [4]: 172 ± 14 ng/mL
- Unstimulated Basal GH release from rats (peptide antagonist alone 100 μg i.v.): 153 ± 45 ng/mL
Substance: DAla-Ala-DAla-DTrp-Phe-Lys-NH2 ([dA]A[dA][dW]FK-NH2; N-terminus assumed; SMILES C[C@H](NC(=O)[C@@H](C)N)C(=O)N[C@H](C)C(=O)N[C@H](Cc1c[nH]c2ccccc12)C(=O)N[C@@H](Cc1ccccc1)C(=O)N[C@@H](CCCCN)C(N)=O)

- Unstimulated Basal GH release from rats [2]: 57 ± 7 ng/mL
- Unstimulated Basal GH release from rats [3]: 84 ± 18 ng/mL
- Unstimulated Basal GH release from rats [1]: 62 ± 15 ng/mL
Substance: αγAbu-DTrp-DTrp-Lys-NH2 ([Dab][dW][dW]K-NH2; N-terminus assumed; SMILES NCCCC[C@H](NC(=O)[C@@H](Cc1c[nH]c2ccccc12)NC(=O)[C@@H](Cc1c[nH]c2ccccc12)NC(=O)[C@@H](N)CCN)C(N)=O)

- Stimulated Control 0.3 μg, GH release from rat (Table 2, stimulator DAla-DβNal-Ala-Trp-DPhe-Lys-NH2 alone, 0.3 μg): 2253 ± 252 ng/mL and 1412 ± 400 ng/mL
Substance: DAla-DβNal-Ala-Trp-DPhe-Lys-NH2 ([dA][d2Nal]AW[dF]K-NH2) [reference compound]
- Stimulated Control 1 μg, GH release from rat (Table 2, stimulator DAla-DβNal-Ala-Trp-DPhe-Lys-NH2 alone, 1 μg): 3214 ± 276 ng/mL and 3105 ± 429 ng/mL and 2406 ± 288 ng/mL and 2825 ± 134 ng/mL and 3104 ± 429 ng/mL

- Stimulated GH release from rat (Table 2, peptide antagonist 10 μg i.v. + stimulator DAla-DβNal-Ala-Trp-DPhe-Lys-NH2 0.3 μg): 1112 ± 200 ng/mL
- Stimulated GH release from rat [5]: 2307 ± 176 ng/mL and 1842 ± 454 ng/mL
- Stimulated GH release from rat [6]: 578 ± 82 ng/mL
- Stimulated GH release from rat [7]: 890 ± 236 ng/mL and 1135 ± 140 ng/mL
Substance: Glyψ[CH2NH]-DβNal-Ala-Trp-DPhe-Lys-NH2 (G[d2Nal]AW[dF]K-NH2; also: reduced Gly-ψ[CH2NH] bond between Gly1 and DβNal2)

- Unstimulated Basal GH Release from rat (peptide alone 1 μg i.v.): 623 ± 60 ng/mL
- Unstimulated Basal GH Release from rat (peptide alone 3 μg i.v.): 694 ± 70 ng/mL
- Unstimulated Basal GH Release from rat (peptide alone 10 μg i.v.): 654 ± 58 ng/mL
- Unstimulated Basal GH Release from rat (peptide alone 30 μg i.v.): 713 ± 71 ng/mL
Substance: DβNal-Ala-Trp-DPhe-Ala-NH2 ([d2Nal]AW[dF]A-NH2; N-terminus assumed; SMILES C[C@H](NC(=O)[C@@H](Cc1ccccc1)NC(=O)[C@H](Cc1c[nH]c2ccccc12)NC(=O)[C@H](C)NC(=O)[C@H](N)Cc1ccc2ccccc2c1)C(N)=O)

- Unstimulated Basal GH Release from rat (peptide alone 1 μg i.v.): 204 ± 44 ng/mL
- Unstimulated Basal GH Release from rat (peptide alone 3 μg i.v.): 127 ± 44 ng/mL
- Unstimulated Basal GH Release from rat (peptide alone 10 μg i.v.): 83 ± 5 ng/mL
Substance: His-Trp-DAla-DTrp-Phe-LysNH2 (HW[dA][dW]FK-NH2)

- Unstimulated Basal GH Release from rat (peptide alone 1 μg i.v.): 199 ± 63 ng/mL
- Unstimulated Basal GH Release from rat (peptide alone 3 μg i.v.): 266 ± 68 ng/mL
- Unstimulated Basal GH Release from rat (peptide alone 10 μg i.v.): 199 ± 23 ng/mL
- Unstimulated Basal GH Release from rat (peptide alone 30 μg i.v.): 346 ± 82 ng/mL
- Unstimulated Basal GH Release from rat (peptide alone 100 μg i.v.): 350 ± 61 ng/mL
Substance: DcyclohexylAla-Ala-Phe-DTrp-Lys-NH2 ([dCha]AF[dW]K-NH2; N-terminus assumed; SMILES C[C@H](NC(=O)[C@H](N)CC1CCCCC1)C(=O)N[C@@H](Cc1ccccc1)C(=O)N[C@H](Cc1c[nH]c2ccccc12)C(=O)N[C@@H](CCCCN)C(N)=O)

Substance: DAla-DβNal-DLys-DTrp-Phe-Lys-NH2 ([dA][d2Nal][dK][dW]FK-NH2; N-terminus assumed; SMILES C[C@@H](N)C(=O)N[C@H](Cc1ccc2ccccc2c1)C(=O)N[C@H](CCCCN)C(=O)N[C@H](Cc1c[nH]c2ccccc12)C(=O)N[C@@H](Cc1ccccc1)C(=O)N[C@@H](CCCCN)C(N)=O)
- Stimulated GH release from rat [7]: 2884 ± 828 ng/mL
- Stimulated GH release from rat [8]: 1198 ± 114 ng/mL
- Stimulated (S) GH release from rats (pentobarbital rats, peptide 30 μg i.v., stimulator 1 μg): 2864 ± 828 ng/mL
- Stimulated (S) GH release from rats (pentobarbital rats, peptide 100 μg i.v., stimulator 1 μg): 1198 ± 114 ng/mL
- Unstimulated GH release from rats (pentobarbital rats, peptide 30 μg i.v.): 323 ± 50 ng/mL
- Unstimulated GH release from rats (pentobarbital rats, peptide 100 μg i.v.): 812 ± 6 ng/mL

- Stimulated GH release from rat [6]: 1487 ± 397 ng/mL
Substance: Ala-His-DTrp-DLys-Trp-DPhe-Lys-NH2 (AH[dW][dK]W[dF]K-NH2; N-terminus assumed; SMILES C[C@H](N)C(=O)N[C@@H](Cc1c[nH]cn1)C(=O)N[C@H](Cc1c[nH]c2ccccc12)C(=O)N[C@H](CCCCN)C(=O)N[C@@H](Cc1c[nH]c2ccccc12)C(=O)N[C@H](Cc1ccccc1)C(=O)N[C@@H](CCCCN)C(N)=O)

- Unstimulated Basal GH release from rats [2]: 118 ± 16 ng/mL
- Unstimulated Basal GH release from rats [1]: 126 ± 27 ng/mL
- Unstimulated Basal GH release from rats [4]: 79 ± 31 ng/mL
Substance: αγAbu-DTrp-DTrp-Orn-NH2

- Unstimulated Basal GH Release from rat (peptide alone 1 μg i.v.): 184 ± 55 ng/mL
- Unstimulated Basal GH Release from rat (peptide alone 3 μg i.v.): 467 ± 201 ng/mL
- Unstimulated Basal GH Release from rat (peptide alone 10 μg i.v.): 244 ± 107 ng/mL
Substance: DAla-DβNal-DAla-DTrp-Phe-Lys-NH2 ([dA][d2Nal][dA][dW]FK-NH2)

- Unstimulated Basal GH release from rats [2]: 85 ± 25 ng/mL
- Unstimulated Basal GH release from rats [1]: 88 ± 18 ng/mL
- Unstimulated Basal GH release from rats [4]: 50 ± 6 ng/mL
Substance: αAbu-DTrp-DTrp-Orn-NH2

Substance: Tyr-DAla-Phe-Aib-NH2 (Y[dA]F[Aib]-NH2; N-terminus assumed; SMILES C[C@@H](NC(=O)[C@@H](N)Cc1ccc(O)cc1)C(=O)N[C@@H](Cc1ccccc1)C(=O)NC(C)(C)C(N)=O) [Tyr-DAla-Phe-Alb-NH2]
- Stimulated (S) GH release from rats (non-pentobarbital rats, peptide 30 μg i.v., stimulator 10 μg): 23 ± 5 ng/mL
- Unstimulated GH release from rats (non-pentobarbital rats, peptide 30 μg i.v.): 18 ± 1 ng/mL

- Stimulated GH release from rat (Table 2, peptide antagonist 3 μg i.v. + stimulator DAla-DβNal-Ala-Trp-DPhe-Lys-NH2 1 μg): 2771 ± 157 ng/mL
- Stimulated GH release from rat [5]: 2341 ± 416 ng/mL
- Stimulated GH release from rat [7]: 1948 ± 450 ng/mL
- Stimulated GH release from rat [8]: 1639 ± 221 ng/mL
Substance: Alaψ[CH2NH]-DβNal-Ala-Trp-DPhe-Lys-NH2 (A[d2Nal]AW[dF]K-NH2; also: Ala1-DβNal2 reduced bond ψ[CH2NH])

From US9724381B2 (THE ADMINISTRATORS OF THE TULANE EDUCATIONAL FUND, priority 2009, dated 2017)
